Data reported in the Immune Epitope Database (IEDB).

Key:
HLA-A*01:01 [1] = assay: IEDB peptide-MHC binding, purified MHC/competitive/radioactivity; ≥ and ≤ were set here for values at or beyond the usual limits of such assays; details: source organism: Homo sapiens
HLA-A*11:01 = assay: as above; details: source organism: Homo sapiens
HLA-A*03:01 = assay: as above; details: source organism: Homo sapiens
HLA-A*24:02 = assay: as above; details: source organism: Homo sapiens
HLA-A*01:01 [2] = assay: IEDB peptide-MHC binding, purified MHC/competitive/radioactivity; filed as Kd, often an IC50 or EC50 that approximates it; ≥ and ≤ were set here for values at or beyond the usual limits of such assays

| Sequence | IC50 (HLA-A*01:01 [1]) [nM] | IC50 (HLA-A*11:01) [nM] | IC50 (HLA-A*03:01) [nM] | other results |
| --- | --- | --- | --- | --- |
| STDHIPILY | 1.7 | – | – | – |
| KVVNPLFEK | – | 8.1 | 85 | – |
| AYVHMVTHF | – | – | – | IC50 (HLA-A*24:02): 23 nM |
| KYPENFFLL | – | – | – | IC50 (HLA-A*24:02): 4.8 nM |
| YLDDPDLKY | 2.8 | – | – | – |
| RTQNVLGEK | – | 31 | 155 | – |
| YYEEQHPEL | – | – | – | IC50 (HLA-A*24:02): 100 nM |
| NRKLLDIA | – | – | – | Kd (HLA-A*01:01 [2]; source organism: Bos taurus): ≥ 50000 nM |
| ATDFKFAMY | 0.74 | – | – | – |
| SVLNLVIVK | – | 6.94 | 128 | – |
| ASFDKAKLK | – | 15.1 | 42 | – |
| DSDGSFFLY | 0.6 | – | – | – |
| DAKIRIFDL | – | – | – | Kd (HLA-A*01:01 [2]; source organism: Homo sapiens): ≥ 50000 nM |
